Values joined by “and” are separate entries in the source; they are usually repeats but may differ in a detail not shown here. Equal values may be shown once.
B1: L130R|G133D, Q6VS32 (parent)
chain: CSSGGGGVAADIGAGLADALTAPLDHKDKSLQSLTLDQSVRKNEKLKLAAQGAEKTYGNGDSLNTGKLKNDKVSRFDFIRQIEVDGQLITLESGEFQIYKQDHSAVVALQIEKINNPDKIDSLINQRSFLVSGLGGEHTAFNQLPSGKAEYHGKAFSSDDPNGRLHYSIDFTKKQGYGRIEHLKTPEQNVELASAELKADEKSHAVILGDTRYGGEEKGTYHLALFGDRAQEIAGSATVKIREKVHEIGIAGKQ

Variants of: B1
Details: Neisseria meningitidis; pH 7; Thermal; DSC; PBS; whole UniProt chain shown

Variant | unfolding enthalpy (calorimetric)
CSSGGGGVAADIGAGLADALTAPLDHKDKSLQSLTLDQSVRKNEKLKLAAQGAEKTYGNGDSLNTGKLKNDKVSRFDFIRQIEVDGQLITLESGEFQIYKQDHSAVVALQIEKINNPDKIDSLINQRSFRVSDLGGEHTAFNQLPSGKAEYHGKAFSSDDPNGRLHYSIDFTKKQGYGRIEHLKTPEQNVELASAELKADEKSHAVILGDTRYGGEEKGTYHLALFGDRAQEIAGSATVKIREKVHEIGIAGKQ [L130R G133D] | 56.3 kcal/mol and 94 kcal/mol
CSSGGGGVAADIGAGLADALTAPLDHKDKSLQSLTLDQSVRKNEKLKLAAQGAEKTYGNGDSLNTGKLKNDKVSRFDFIRQIEVDGQLITLESGEFQIYKQDHSAVVALQIEKINNPDKIDSLINQRSFLVSDLGGEHTAFNQLPSGKAEYHGKAFSSDDPNGRLHYSIDFTKKQGYGRIEHLKTPEQNVELASAELKADEKSHAVILGDTRYGGEEKGTYHLALFGDRAQEIAGSATVKIREKVHEIGIAGKQ [G133D] | 96.8 kcal/mol and 96.1 kcal/mol

Reference: FireProtDB (doi:10.1073/pnas.1507829112)
